B1: C-terminally HA-tagged WDR18 (full length) (natural protein, human, UniProt Q9BV38 1-432, looked up)
chain: MAAPMEVAVCTDSAAPMWSCIVWELHSGANLLTYRGGQAGPRGLALLNGEYLLAAQLGKNYISAWELQRKDQLQQKIMCPGPVTCLTASPNGLYVLAGVAESIHLWEVSTGNLLVILSRHYQDVSCLQFTGDSSHFISGGKDCLVLVWSLCSVLQADPSRIPAPRHVWSHHALPITDLHCGFGGPLARVATSSLDQTVKLWEVSSGELLLSVLFDVSIMAVTMDLAEHHMFCGGSEGSIFQVDLFTWPGQRERSFHPEQDAGKVFKGHRNQVTCLSVSTDGSVLLSGSHDETVRLWDVQSKQCIRTVALKGPVTNAAILLAPVSMLSSDFRPSLPLPHFNKHLLGAEHGDEPRHGGLTLRLGLHQQGSEPSYLDRTEQLQAVLCSTMEKSVLGGQDQLRVRVTELEDEVRNLRKINRDLFDFSTRFITRPAK
notes: WDR18, human, full length; The HA tag is stated for the cryo-EM sample; Two copies stand in the heterotetramer; source: HEK293FT, transiently transfected; in lysate (co-IP) and co-purified with FLAG-tagged PELP1 constructs on anti-FLAG gel (cryo-EM, cross-linking); not shown: HA, C-terminal, kept
B2: epitope-tagged SENP3 (enzyme)
chain: not shown
notes: SENP3, human; Blots used anti-HA, anti-GFP and anti-MYC antibodies; also called SUMO protease SENP3; source: HEK293FT, transiently transfected; in lysate (co-IP) and co-purified with C-terminal FLAG-tagged PELP1 (cross-linking)
B3: N-terminally FLAG-tagged PELP1 Rix1 domain (1-642aa) (domain or fragment)
chain: not shown
notes: PELP1, human, N-terminal Rix1 domain, residues 1-642; Two copies stand in the PELP1-WDR18 heterotetramer of the cryo-EM structure; also called Rix1 domain of PELP1; source: HEK293FT, transiently transfected; not shown: FLAG, N-terminal, kept

What was measured:
[1] = biological target: B3; test: cross-linking; BS3 cross-linking with mass spectrometry of the PELP1 Rix1 domain-WDR18 sub-complex purified via the N-terminal FLAG tag; 6.0 uM complex, 1.0 mM BS3, 50 mM Hepes pH 7.3, 600 mM NaCl, 5 mM MgCl2, 5% glycerol, room temperature 10 min; details: both partners purified
[2] = biological target: T1, C-terminal FLAG-tagged PELP1 (full length) (human, UniProt Q8IZL8 1-1130); test: cross-linking; BS3 cross-linking with mass spectrometry of the Rix1 complex purified via the C-terminal FLAG tag on full-length PELP1; 2.0 uM complex, 50 mM Hepes pH 7.3, 600 mM NaCl, 5 mM MgCl2, 5% glycerol, room temperature 10 min; BS3 1.2 mM (methods) or 0.12 mM (results); details: both partners purified
T1 construct: also called C-terminal PELP1 IP; source: HEK293FT, transiently transfected; in lysate (co-IP) and purified with the Rix1 complex via the C-terminal FLAG tag (cross-linking); not shown: FLAG, C-terminal, kept

[3] = biological target: B2; test: as above; details: both partners purified
[4] = biological target: the molecule itself; test: cryo-EM structure; PELP1 Rix1 domain and WDR18 co-expressed in HEK293FT and co-purified on anti-FLAG gel; 150 mM NaCl, 50 mM Hepes pH 7.7, 5 mM MgCl2; 0.24 mg/ml; C2 symmetry, 2.7 Å

T1 sequence (Q8IZL8 whole entry): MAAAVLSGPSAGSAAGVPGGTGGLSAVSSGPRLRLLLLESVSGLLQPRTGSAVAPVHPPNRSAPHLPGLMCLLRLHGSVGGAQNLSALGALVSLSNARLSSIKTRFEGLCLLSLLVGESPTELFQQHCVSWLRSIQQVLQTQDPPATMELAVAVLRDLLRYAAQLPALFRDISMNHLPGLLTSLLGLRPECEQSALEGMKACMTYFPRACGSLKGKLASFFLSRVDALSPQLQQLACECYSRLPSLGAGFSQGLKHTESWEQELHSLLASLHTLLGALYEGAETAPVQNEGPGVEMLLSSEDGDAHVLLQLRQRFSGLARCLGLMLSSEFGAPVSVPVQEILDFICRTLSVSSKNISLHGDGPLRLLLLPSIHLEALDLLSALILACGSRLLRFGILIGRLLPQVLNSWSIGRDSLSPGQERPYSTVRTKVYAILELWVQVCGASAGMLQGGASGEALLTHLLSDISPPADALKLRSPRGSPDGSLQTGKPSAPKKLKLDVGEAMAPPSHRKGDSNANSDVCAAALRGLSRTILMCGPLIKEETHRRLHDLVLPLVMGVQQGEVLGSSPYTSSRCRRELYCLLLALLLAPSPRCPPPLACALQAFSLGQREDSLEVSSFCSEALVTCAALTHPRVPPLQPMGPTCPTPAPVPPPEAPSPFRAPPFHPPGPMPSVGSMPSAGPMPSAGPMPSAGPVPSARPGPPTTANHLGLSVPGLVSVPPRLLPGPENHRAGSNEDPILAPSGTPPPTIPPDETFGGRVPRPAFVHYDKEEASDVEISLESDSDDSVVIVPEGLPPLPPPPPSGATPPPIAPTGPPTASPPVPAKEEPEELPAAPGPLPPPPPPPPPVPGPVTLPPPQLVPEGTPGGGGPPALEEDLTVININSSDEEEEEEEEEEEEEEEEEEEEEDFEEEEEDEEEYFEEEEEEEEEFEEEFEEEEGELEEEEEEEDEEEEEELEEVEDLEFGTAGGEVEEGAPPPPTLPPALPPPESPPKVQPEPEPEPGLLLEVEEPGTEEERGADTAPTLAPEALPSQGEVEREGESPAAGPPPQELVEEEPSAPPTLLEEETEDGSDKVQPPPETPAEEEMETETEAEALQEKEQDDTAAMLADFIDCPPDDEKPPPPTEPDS

Row | Binder | binding result [1] | binding result [2] | binding result [3] | stoichiometry N [4]
1 | B1 | binds | binds | binds | 
2 | B2 |  | binds |  | 
3 | B3 |  |  |  | 2
